Measured values from doi:10.1101/2020.08.31.20184481.

Assays:
R1003W GFP-βIISp (human) = R1003W GFP-βIISp (human) (UniProt Q01082); test: pull-down
F-actin = F-actin (UniProt P68135); test: co-sedimentation

Sequence of R1003W GFP-βIISp (human) (Q01082 whole entry R1003W): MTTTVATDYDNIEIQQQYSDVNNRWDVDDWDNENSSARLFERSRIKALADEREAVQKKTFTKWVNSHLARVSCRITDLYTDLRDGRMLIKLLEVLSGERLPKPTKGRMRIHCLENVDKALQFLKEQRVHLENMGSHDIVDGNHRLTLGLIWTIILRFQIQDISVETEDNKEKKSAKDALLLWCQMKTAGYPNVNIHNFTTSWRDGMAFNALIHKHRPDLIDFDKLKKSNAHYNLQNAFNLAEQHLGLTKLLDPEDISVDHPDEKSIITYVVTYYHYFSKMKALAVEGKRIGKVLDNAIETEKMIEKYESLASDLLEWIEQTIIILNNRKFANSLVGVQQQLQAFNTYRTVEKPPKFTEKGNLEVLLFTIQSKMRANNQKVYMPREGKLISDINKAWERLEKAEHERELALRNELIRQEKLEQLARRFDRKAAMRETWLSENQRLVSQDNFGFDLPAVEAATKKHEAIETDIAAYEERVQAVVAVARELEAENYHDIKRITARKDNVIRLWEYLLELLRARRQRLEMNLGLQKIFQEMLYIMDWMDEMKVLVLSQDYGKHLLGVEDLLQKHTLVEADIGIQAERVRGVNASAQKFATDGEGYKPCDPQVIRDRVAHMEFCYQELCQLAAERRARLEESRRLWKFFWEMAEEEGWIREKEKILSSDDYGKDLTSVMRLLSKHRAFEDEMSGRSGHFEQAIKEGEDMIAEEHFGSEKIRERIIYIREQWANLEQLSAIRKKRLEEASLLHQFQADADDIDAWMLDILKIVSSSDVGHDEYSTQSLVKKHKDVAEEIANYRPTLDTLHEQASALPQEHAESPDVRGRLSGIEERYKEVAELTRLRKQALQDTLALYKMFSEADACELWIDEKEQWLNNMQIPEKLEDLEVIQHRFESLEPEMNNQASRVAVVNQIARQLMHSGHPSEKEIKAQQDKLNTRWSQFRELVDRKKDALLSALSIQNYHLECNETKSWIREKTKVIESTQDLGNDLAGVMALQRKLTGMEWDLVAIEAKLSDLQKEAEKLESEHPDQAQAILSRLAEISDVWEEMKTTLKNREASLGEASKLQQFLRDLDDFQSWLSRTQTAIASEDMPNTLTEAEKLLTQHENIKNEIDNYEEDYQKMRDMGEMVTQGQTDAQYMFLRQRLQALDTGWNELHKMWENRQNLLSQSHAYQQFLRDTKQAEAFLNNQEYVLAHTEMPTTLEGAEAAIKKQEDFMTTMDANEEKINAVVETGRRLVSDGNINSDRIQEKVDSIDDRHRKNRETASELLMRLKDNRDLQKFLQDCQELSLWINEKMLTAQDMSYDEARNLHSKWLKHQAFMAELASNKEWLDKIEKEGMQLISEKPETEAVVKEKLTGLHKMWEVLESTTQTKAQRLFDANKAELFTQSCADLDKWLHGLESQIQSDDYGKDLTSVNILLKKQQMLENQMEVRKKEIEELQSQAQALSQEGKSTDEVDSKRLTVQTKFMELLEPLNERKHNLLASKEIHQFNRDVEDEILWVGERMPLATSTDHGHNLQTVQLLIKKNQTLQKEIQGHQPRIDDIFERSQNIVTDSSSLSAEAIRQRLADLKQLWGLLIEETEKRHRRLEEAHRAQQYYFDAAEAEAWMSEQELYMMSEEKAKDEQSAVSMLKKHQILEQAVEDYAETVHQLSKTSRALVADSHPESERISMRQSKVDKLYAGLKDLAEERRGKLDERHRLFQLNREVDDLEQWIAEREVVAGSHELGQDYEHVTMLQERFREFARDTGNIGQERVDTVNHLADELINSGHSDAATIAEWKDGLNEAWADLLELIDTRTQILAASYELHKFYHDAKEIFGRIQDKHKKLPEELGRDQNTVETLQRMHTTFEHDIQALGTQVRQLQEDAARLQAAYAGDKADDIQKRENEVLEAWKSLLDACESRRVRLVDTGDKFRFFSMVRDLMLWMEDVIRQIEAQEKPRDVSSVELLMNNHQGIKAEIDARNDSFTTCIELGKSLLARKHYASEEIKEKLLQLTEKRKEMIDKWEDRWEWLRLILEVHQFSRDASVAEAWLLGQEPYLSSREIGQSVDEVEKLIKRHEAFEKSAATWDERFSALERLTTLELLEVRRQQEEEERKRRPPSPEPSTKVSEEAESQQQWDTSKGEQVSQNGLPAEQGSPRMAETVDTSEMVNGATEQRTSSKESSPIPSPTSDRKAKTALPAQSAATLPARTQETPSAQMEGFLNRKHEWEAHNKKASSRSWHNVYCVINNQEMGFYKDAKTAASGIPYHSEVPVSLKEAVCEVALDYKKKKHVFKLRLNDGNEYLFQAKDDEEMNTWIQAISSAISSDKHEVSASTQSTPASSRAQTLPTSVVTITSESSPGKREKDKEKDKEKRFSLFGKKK

mCherry-tagged αII-spectrin, Q13813-2 1-2477
percent reduction of association against WT GFP-βIISp (R1003W GFP-βIISp (human)): 40%

purified full-length βII-spectrin p.A850G (from UniProt Q01082-1 1-2364) (natural protein)
percent higher F-actin binding than WT (F-actin): 50%

purified full-length βII-spectrin p.I159_Q160del (from UniProt Q01082-1 1-2364) (natural protein)
percent less association with F-actin than WT (F-actin): 70%

purified full-length βII-spectrin p.T59I (from UniProt Q01082-1 1-2364) (natural protein)
percent less association with F-actin than WT (F-actin): 40%
